Like-named read-outs stand apart in the source and are kept apart here.
B1: b1b2 domains (275-595) of neuropilin-2 (receptor, UniProt O60462 275-595, looked up)
chain: FQCNVPLGMESGRIANEQISASSTYSDGRWTPQQSRLHGDDNGWTPNLDSNKEYLQVDLRFLTMLTAIATQGAISRETQNGYYVKSYKLEVSTNGEDWMVYRHGKNHKVFQANNDATEVVLNKLHAPLLTRFVRIRPQTWHSGIALRLELFGCRVTDAPCSNMLGMLSGLIADSQISASSTQEYLWSPSAARLVSSRSGWFPRIPQAQPGEEWLQVDLGTPKTVKGVIIQGARGGDSITAVEARAFVRKFKVSYSLNGKDWEYIQDPRTQQPKLFEGNMHYDTPDIRRFDPIPAQYVRVYPERWSPAGIGMRLEVLGCDWT
notes: range 275-595; Purified soluble domain; also called NRP2-b1b2; NRP-2 b1b2
B3: Sema3A (26-760) (ligand, UniProt Q14563 26-760, looked up)
chain: KNNVPRLKLSYKEMLESNNVITFNGLANSSSYHTFLLDEERSRLYVGAKDHIFSFDLVNIKDFQKIVWPVSYTRRDECKWAGKDILKECANFIKVLKAYNQTHLYACGTGAFHPICTYIEIGHHPEDNIFKLENSHFENGRGKSPYDPKLLTASLLIDGELYSGTAADFMGRDFAIFRTLGHHHPIRTEQHDSRWLNDPKFISAHLISESDNPEDDKVYFFFRENAIDGEHSGKATHARIGQICKNDFGGHRSLVNKWTTFLKARLICSVPGPNGIDTHFDELQDVFLMNFKDPKNPVVYGVFTTSSNIFKGSAVCMYSMSDVRRVFLGPYAHRDGPNYQWVPYQGRVPYPRPGTCPSKTFGGFDSTKDLPDDVITFARSHPAMYNPVFPMNNRPIVIKTDVNYQFTQIVVDRVDAEDGQYDVMFIGTDVGTVLKVVSIPKETWYDLEEVLLEEMTVFREPTAISAMELSTKQQQLYIGSTAGVAQLPLHRCDIYGKACAECCLARDPYCAWDGSACSRYFPTAKRRTRRQDIRNGDPLTHCSDLHHDNHHGHSPEERIIYGVENSSTFLECSPKSQRALVYWQFQRRNEERKEEIRVDDHIIRTDQGLLLRSLQQKDSGNYLCHAVEHGFIQTLLKVTLEVIDTEHLEELLHKDDDGDGSKTKEMSNSMTPSQKVWYRDFMQLINHPNLNTMDEFCEQVWKRDRKQRRQRPGHTPGNSNKWKHLQENKKGRNRR
notes: range 26-760; Control ligand; Biotinylated in the ELISA; also called Semaphorin3A; Semaphorin 3A
B4: b1b2 domains (273-586) of neuropilin-1 (receptor, UniProt O14786 273-586, looked up)
chain: FKCMEALGMESGEIHSDQITASSQYSTNWSAERSRLNYPENGWTPGEDSYREWIQVDLGLLRFVTAVGTQGAISKETKKKYYVKTYKIDVSSNGEDWITIKEGNKPVLFQGNTNPTDVVVAVFPKPLITRFVRIKPATWETGISMRFEVYGCKITDYPCSGMLGMVSGLISDSQITSSNQGDRNWMPENIRLVTSRSGWALPPAPHSYINEWLQIDLGEEKIVRGIIIQGGKHRENKVFMRKFKIGYSNNGSDWKMIMDDSKRKAKSFEGNNNYDTPELRTFPALSTRFIRIYPERATHGGLGLRMELLGCEVE
notes: range 273-586; Purified soluble domain; No tag described; also called NRP1-b1b2; NRP-1 b1b2

Assays:
[1] = biological target: B3; assay: SPR Biacore 2000, NRP b1b2 on CM5 chip
[2] = biological target: T1, Sema3F (19-779) (UniProt Q13275 19-779); assay: SPR Biacore 2000, NRP b1b2 on CM5 chip
T1 construct: range 19-779; Control ligand; Biotinylated in the ELISA; also called Semaphorin 3F
T1 sequence (looked up): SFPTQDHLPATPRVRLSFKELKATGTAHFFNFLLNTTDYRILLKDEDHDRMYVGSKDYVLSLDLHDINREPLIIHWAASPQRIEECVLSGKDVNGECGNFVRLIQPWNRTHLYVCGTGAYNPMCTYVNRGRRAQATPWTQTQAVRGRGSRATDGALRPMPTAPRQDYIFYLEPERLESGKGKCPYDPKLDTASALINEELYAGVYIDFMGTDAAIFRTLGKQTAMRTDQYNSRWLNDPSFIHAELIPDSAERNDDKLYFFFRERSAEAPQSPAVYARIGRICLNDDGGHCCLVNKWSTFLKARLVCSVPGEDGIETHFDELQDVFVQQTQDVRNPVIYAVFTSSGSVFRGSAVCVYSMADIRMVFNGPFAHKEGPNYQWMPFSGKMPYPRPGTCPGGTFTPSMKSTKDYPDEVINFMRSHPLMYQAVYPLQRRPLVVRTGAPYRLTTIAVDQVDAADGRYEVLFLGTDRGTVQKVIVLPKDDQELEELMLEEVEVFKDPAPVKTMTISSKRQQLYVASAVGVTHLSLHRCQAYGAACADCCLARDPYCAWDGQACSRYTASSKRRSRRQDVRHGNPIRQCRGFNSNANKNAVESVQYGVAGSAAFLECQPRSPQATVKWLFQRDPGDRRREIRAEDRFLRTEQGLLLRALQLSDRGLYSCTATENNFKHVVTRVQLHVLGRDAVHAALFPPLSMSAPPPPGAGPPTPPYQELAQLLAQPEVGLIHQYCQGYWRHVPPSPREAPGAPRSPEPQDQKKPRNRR
Method: (§1) Specifically, each b1b2 domain of neuropilin-1 and -2 was diluted with 10 mM Na-acetate buffer (pH 4.0), and fixed onto CM5 sensor chips (GE healthcare, USA) in about 1000 response units (RU). […] After bond and dissociation analysis, the regeneration of CM5 chip was performed by streaming a buffer (20 Mm NaOH, 1 M NaCl, pH 10.0) at a stream velocity 30 μl/min for 1 minute.

[3] = biological target: B1; assay: SPR Biacore 2000, NRP b1b2 on CM5 chip
Method: as §1

[4] = biological target: B4; assay: SPR Biacore 2000, NRP b1b2 on CM5 chip
Method: as §1

[5] = biological target: B1; assay: SPR Biacore 2000, NRP b1b2 on CM5 chip; remark: listed apart in the source
Method: as §1

[6] = biological target: B4; assay: SPR Biacore 2000, NRP b1b2 on CM5 chip; remark: listed apart in the source
Method: as §1

[7] = biological target: B4; assay: competition ELISA on plate-bound NRP1-b1b2: VEGF165 titrated against Fc-15F22P (30 nM), absorbance at 405 nm [right panel Fc-15F22P]
Method: (§2) Specifically, b1b2 domains (273-586) of neuropilin-1 and b1b2 domains (275-595) of neuropilin-2 were bound in 96-well EIA/RIA plates (COSTAR Corning In., USA) at room temperature for 1 hour, and then washed three times for 10 minutes with 0.1% PBST (0.1% Tween20, pH 7.4, 137 mM NaCl, 10 mM Phosphate, 2.7 mM KCl, SIGMA-ALDRICH co., USA). After binding for 1 hour with 5% skim milk (pH 7.4, 137 mM NaCl, 10 mM Phosphate, 2.7 mM KCl, SIGMA-ALDRICH co., USA), it was washed three times for 10 minutes with 0.1% PBST (0.1% Tween20, pH 7.4, 137 mM NaCl, 10 mM Phosphate, 2.7 mM KCl, SIGMA-ALDRICH co., USA).

[8] = biological target: B4; assay: competition ELISA on plate-bound NRP1-b1b2: VEGF165 titrated against Fc-15A22P (30 nM), absorbance at 405 nm [left panel Fc-15A22P]
Method: as §2

[9] = biological target: B4; assay: competition ELISA on plate-bound NRP1-b1b2: Sema3A titrated against Fc-15A22P (30 nM), absorbance at 405 nm [left panel Fc-15A22P]
Method: as §2

[10] = biological target: B4; assay: competition ELISA on plate-bound NRP1-b1b2: Sema3A titrated against Fc-15F22P (30 nM), absorbance at 405 nm [right panel Fc-15F22P]
Method: as §2

B1 showed a Kd [1] of 231 nM, a koff [1] of 0.00161 s⁻¹ and a kon [1] of 6960 M⁻¹ s⁻¹. The Kd [2] was 345 nM, the koff [2] was 0.0015 s⁻¹ and the kon [2] was 4340 M⁻¹ s⁻¹.

B2: VEGF165A (ligand, UniProt P15692-4 27-191, looked up)
chain: APMAEGGGQNHHEVVKFMDVYQRSYCHPIETLVDIFQEYPDEIEYIFKPSCVPLMRCGGCCNDEGLECVPTEESNITMQIMRIKPHQGQHIGEMSFLQHNKCECRPKKDRARQENPCGPCSERRKHLFVQDPQTCKCSCKNTDSRCKARQLELNERTCRCDKPRR
notes: Control ligand; biotinylated in the ELISA; also called vascular endothelial cell growth factor-A
B2 gave a Kd [3] of 32 nM, a koff [3] of 0.00373 s⁻¹ and a kon [3] of 117000 M⁻¹ s⁻¹. It also gave a Kd [4] of 3.51 nM, a koff [4] of 0.00342 s⁻¹ and a kon [4] of 975000 M⁻¹ s⁻¹. The Kd [5] was 32 nM, the koff [5] was 0.00373 s⁻¹ and the kon [5] was 117000 M⁻¹ s⁻¹. For the same binder, the Kd [6] was 3.51 nM, the koff [6] was 0.00342 s⁻¹ and the kon [6] was 975000 M⁻¹ s⁻¹. The “IC50 (read off the curve)” value [7] was ~2 nM and the “IC50 (read off the curve)” value [8] was ~3 nM.

With B3 the “IC50 (read off the curve)” value [9] was ~20 nM and the “IC50 (read off the curve)” value [10] was ~20 nM.

With B4 the Kd [1] was 27.9 nM, the koff [1] was 0.000808 s⁻¹ and the kon [1] was 28900 M⁻¹ s⁻¹. For the same binder, the Kd [2] was 245 nM, the koff [2] was 0.000973 s⁻¹ and the kon [2] was 3980 M⁻¹ s⁻¹.

Reference: patent US20160130315A1 (AJOU UNIVERSITY INDUSTRY ACADEMIC COOPERATION FOUNDATION, published 2016)
